Positions count from the first letter of the chain named.
B1: AMINO1 display phage (designed binder)
chain: KEDFCQLGYSAGPCVAMFPRYFYNGTSMACETFQYGGCMGNGNNFVTEKDCLQTCRGA
B2: MA-BITI-E7-141 display phage (designed binder)
chain: B1 chain with K1R, E2P, E31Q, Q34V
B3: MUT1619 display phage (designed binder)
chain: B1 chain with K1R, E2P, A16G, P19S, E31Q, Q34V
B4: AMINO2 display phage (designed binder)
chain: B1 chain with E2P, F4S
B5: MA-ITI-D1E7 display phage (designed binder)
chain: B1 chain with F4S
B6: MUTQE display phage (designed binder)
chain: B1 chain with K1R, E2P, Q34V
B7: MUTT26A display phage (designed binder)
chain: B1 chain with K1R, E2P, T26A, E31Q, Q34V
B8: EPI-HNE-3 (designed binder)
chain: AACNLPIVRGPCIAFFPRWAFDAVKGKCVLFPYGGCQGNGNKFYSEKECREYCGVP
B9: EPI-HNE-4 (designed binder)
chain: B8 chain with A1E

Key:
[1] = biological target: T1, Human Neutrophil Elastase (human, UniProt P08246); experiment: pH elution of display phage from hNE beads, extended protocol
Source text: (§1) Total pfu applied to the beads are in column two. The fractions of this input pfu recovered in each pH fraction of the abbreviated pH elution protocol (pH 7.0, pH 3.5, and pH 2.0) are in the next three columns. For data obtained using the extended pH elution protocol, the pH 3.5 listing represents the sum of the fractions of input recovered in the pH 6.0, pH 5.5, pH 5.0, pH 4.5, pH 4.0, and pH 3.5 elution samples. The pH 2.0 listing is the sum of the fractions of input obtained from the pH 3.0, pH 2.5, and pH 2.0 elution samples. The total fraction of input pfu obtained throughout the pH elution protocol is in the sixth column. The final column of the table lists the total fraction of input pfu recovered, normalized to the value obtained for MA-BITI-E7-141 phage.

[2] = biological target: T1, Human Neutrophil Elastase; experiment: pH elution of display phage from hNE beads
[3] = biological target: T1, Human Neutrophil Elastase; experiment: display phage on hNE beads, extended pH fractionation
Source text: We characterized the binding properties to hNE-beads of MA-BITI and MA-BITI-E7 display phage using the extended pH fractionation procedure described in U.S. Pat. No. 5,223,409.

[4] = biological target: T1, Human Neutrophil Elastase; experiment: pH elution of display phage from hNE beads, abbreviated protocol
Source text: as §1

[5] = biological target: T1, Human Neutrophil Elastase; experiment: estimated for the free domain from display phage binding to and elution from hNE beads
[6] = biological target: T1, Human Neutrophil Elastase; experiment: abbreviated fractionation of display phage on hNE beads
Procedure: (§2) To test if ITI-D1E7-display phage bind hNE beads, pH elution profiles were measured. Aliquots of EpiNE-7, MA-ITI-D1, and MA-ITI-D1E7 display phage were incubated with hNE beads for three hours at room temperature (RT). The beads were washed and phage were eluted as described in U.S. Pat. No. 5,223,409, except that only three pH elutions were performed.

[7] = biological target: T1, Human Neutrophil Elastase; experiment: display phage eluted from hNE beads, normalized to MA-EpiNE7 in a concurrent elution
[8] = biological target: T1, Human Neutrophil Elastase; experiment: display phage on hNE beads, pH elution
Procedure: as §2

[9] = biological target: Human Pancreatic Chymotrypsin (human, UniProt P17538); experiment: enzyme inhibition assay; said to be probably not specific
[10] = biological target: T1, Human Neutrophil Elastase; experiment: enzyme inhibition assay
Procedure: (§3) Inhibition constants for the proteins reacting with hNE (Kᵢ) were determined using RT measurements of hydrolysis of a fluorogenic substrate (N-methoxysuccinyl-Ala-Ala-Pro-Val-7-amino-4-methylcoumarin, Sigma M-9771) by hNE. […] The reactions were incubated at RT for 30 minutes. At the end of the incubation period, the fluorogenic substrate was added at a concentration of 25 μM and the time course for increase in fluorescence at 470 nm (excitation at 380 nm) due to enzymatic substrate cleavage was recorded using a spectrofluorimeter (Perkin-Elmer 650-15) and strip chart recorder. […] Kᵢ is related to Kₐₚₚₐᵣₑₙₜ by Kᵢ=Kₐₚₚₐᵣₑₙₜ×(1/(1+(S₀/Kₘ))). The correction is small compared to the possible errors in Kₐₚₚₐᵣₑₙₜ. Rates of enzymatic substrate cleavage were determined from the linear slopes of the recorded increases in fluorescence.
(§4) We recorded data used to determine Kᵢ for EPI-HNE-2 and EPI-HNE-3 reacting with hNE. Data obtained as described above are recorded as percent residual activity plotted as a function of added inhibitor. […] From the data, Kᵢ values for EPI-HNE-2 and for EPI-HNE-3 reacting with hNE at RT were calculated to be 4.8 pM and 6.2 pM, respectively.

[11] = biological target: T1, Human Neutrophil Elastase; experiment: progressive inhibition of hNE substrate hydrolysis after addition of inhibitor
Procedure: The kinetic on-rates for the inhibitors reacting with hNE (kₒₙ) were determined from measurements of progressive inhibition of substrate hydrolytic activity by hNE following addition of inhibitor. For these experiments, a known concentration of inhibitor was added to a solution of hNE (0.847 nM) and substrate (25 μM) in 2 ml of reaction buffer in a plastic fluorescence cuvette. The change in fluorescence was recorded continuously following addition of the inhibitor. […] The enzymatic rate at selected times following addition of the inhibitor was determined from the slope of the tangent to the fluorescence time course at that time.
The kinetic constant kₒₙ for EPI-HNE-2 reacting with hNE was determined as follows. EPI-HNE-2 at 1.3 nM was added to buffer containing 0.867 nM hNE (I:E=1.5:1) at time 0.

[12] = biological target: T1, Human Neutrophil Elastase; experiment: hNE inhibition assay of EPI-HNE-3 stored in unbuffered water at 4° C. for five months
[13] = biological target: T1, Human Neutrophil Elastase; experiment: calculated by the filing from koff = KD × kon
Source text: […] […] B. Specificity.

Human Serum Thrombin = Human Serum Thrombin (human, UniProt P00734); experiment: enzyme inhibition assay; limit on the assumption of less than 10% inhibition at the highest concentration tested
Human Urine Urokinase = Human Urine Urokinase (human, UniProt P00749); experiment: as above
Human Serum Kallikrein = Human Serum Kallikrein (human, UniProt P03952); experiment: as above
Human Serum Plasmin = Human Serum Plasmin (human, UniProt P00747); experiment: as above
Human Plasma Factor Xa = Human Plasma Factor Xa (human, UniProt P00742); experiment: as above
[14] = biological target: T1, Human Neutrophil Elastase; experiment: inhibition of hNE hydrolysis of a fluorogenic substrate, [hNE] = 8.47 × 10^-10 molar
Procedure: as §3, §4

| Binder | Fraction of Input recovered at pH2.0 [1] | Fraction of Input recovered at pH3.5 [1] | Fraction of Input recovered at pH7.0 [1] | Recovery Relative to BITI-E7-141 [1] [ratio] | Recovery, Total fraction of input [1] | Fraction of Input recovered at pH2.0 [4] | Fraction of Input recovered at pH3.5 [4] | Fraction of Input recovered at pH7.0 [4] | Recovery Relative to BITI-E7-141 [4] [ratio] | Recovery, Total fraction of input [4] | Estimated KD [5] [pM] | other results |
| --- | --- | --- | --- | --- | --- | --- | --- | --- | --- | --- | --- | --- |
| B1 | 3.5e-05 fraction of input | 0.00023 fraction of input | 2.4e-05 fraction of input | 0.11 | 0.00029 fraction of input |  |  |  |  |  |  | fold reduction of binding against parental MA-BITI-E7-141 [2]: ≥ 10 fold |
| B2 | 0.00032 fraction of input | 0.0021 fraction of input | 0.00021 fraction of input | 1 | 0.0026 fraction of input | 0.00054 fraction of input | 0.0018 fraction of input | 0.00022 fraction of input | 1 | 0.0026 fraction of input | < 10 | fold increase in total fraction of input eluted, relative to parental MA-BITI-E7 [3]: 10 fold |
| B3 | 8.4e-05 fraction of input | 0.00099 fraction of input | 8.2e-05 fraction of input | 0.46 | 0.0012 fraction of input |  |  |  |  |  | < 10 |  |
| B4 |  |  |  |  |  | 4.5e-05 fraction of input | 0.00021 fraction of input | 5.7e-05 fraction of input | 0.12 | 0.00031 fraction of input |  | fold reduction of binding against parental MA-BITI-E7-141 [2]: ≥ 10 fold |
| B5 |  |  |  |  |  |  |  |  |  |  |  | fraction of input eluted at pH 3.5 [6]: 8e-05 fraction of input; fraction of input in Wash [6]: 2e-05 fraction of input; Normalized fraction of input (relative to recovered MA-EpiNE7) [7]: 0.027 ratio; fold less total fraction eluted than EpiNE-7 display phage [8]: ~40 fold |
| B6 |  |  |  |  |  | 0.00053 fraction of input | 0.0016 fraction of input | 0.00012 fraction of input | 0.85 | 0.0022 fraction of input | < 10 |  |
| B7 | 0.00033 fraction of input | 0.0019 fraction of input | 0.00025 fraction of input | 0.96 | 0.0025 fraction of input |  |  |  |  |  | < 10 |  |
| B8 |  |  |  |  |  |  |  |  |  |  |  | Ki [9]: ~30 µM; Ki [10]: 6 pM; kon [11]: 8e+06 M⁻¹ s⁻¹; Ki [12]: ~0.012 nM; koff [13]: 5e-05 s⁻¹; Ki (Human Serum Thrombin): > 100 µM; Ki (Human Urine Urokinase): > 100 µM; Ki (Human Serum Kallikrein): > 100 µM; Ki (Human Serum Plasmin): > 100 µM; Ki (Human Plasma Factor Xa): > 100 µM; Kd [14]: 6.2 pM |
| B9 |  |  |  |  |  |  |  |  |  |  |  | Ki [9]: ~10 µM; Ki [10]: 5 pM; kon [11]: 1.06e+07 M⁻¹ s⁻¹; koff [13]: 4.9e-05 s⁻¹; Ki (Human Serum Thrombin): > 90 µM; Ki (Human Urine Urokinase): > 90 µM; Ki (Human Serum Kallikrein): > 90 µM; Ki (Human Serum Plasmin): > 90 µM; Ki (Human Plasma Factor Xa): > 90 µM; Kd [14]: 4.6 pM |
